Test results as given in the domain aggregation screens of Martell et al. (2025).

Assay: soluble fraction after stress (log2 fold change); higher = more stays soluble; pooled small domains, quantitative proteomics
Conditions: stress: 50 degC
Summary of the method: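 Each library was heated to 50°C as a stress step. The libraries, made up of small protein domains, were pooled and analysed at high throughput by quantitative proteomics. The reported value is the base-two logarithm of the fold change in each protein's soluble amount after stress, taken as a measure of aggregation propensity. The higher the value, the more protein stays in solution.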

| Sequence | soluble fraction (log2) |
| --- | --- |
| HMHSRLEDIPGIGPRRRAMLLRHFGGLAELKAAGVEEIARVEGINMALAQRLWRALHGVPDPT | -0.339 |
| HMGKPTPASQVATRWLTGNLPESLPVAGPAPSFEALARTVSTDLHPRSVLQELVRLGVAEEANGVVTLRRQ | -0.00643 |
| HMATSNGEFVIPDGGLQFEELERSLLMQALKKSGGSQTGAARLLGLSRDTLRYRLEKFGIDAAAVRE | -0.165 |
| HMFYWTDLIGLDVINTADERLGKVVGLIETGANAVLRVMGDDQVERLLPFGSAVVLTVEKEAGQIRVEW | -0.89 |
| HMDRFRYYITEDSVQRGTYPYVDETTLKRFTSQLHKYEQGMISAYGYLEYSKPLTAEQIKDYTLMPSP | 0.0317 |
| HMSKDKEKRTREHVLGILKKYDKVMTDKAFTVFKKMIKDESILEMELIKLINFIGERKEIRSKDVLAVVTE | 0.281 |
| HMSGFFVYPNPAKSNIIHFPNKKSFYIYDTSGRLLIEGKGKDFIDVSTLDRGVYLLKTFENDIVKIII | -1.25 |
| HMFYLPEPLTEQELRILGMLLDGRSNPEIAAELFIAVGTAKWHVHNILQKLGVANRAQAIVKAHELGLT | -1.91 |
| HMNFIPGEKINLKIVQEGKEKNQGVGYLSDGTMVIVENGSQKLGQDVEVVVIKNIQSSAGKIVFGDISK | 0.0978 |
| HMKKEDFLEILRDYLKKGFSEDEVMDILRDYEEYFVDGIIEGKSEIEIIQSLGSPKEIANELLAES | -0.202 |
| HMTSPRRLYALIVEHVGKDGVMHRSDVENVLAKVESEMDVDDLLDQLEINGTIIRRQDGTWQLL | -0.197 |
| HMKSATGKIPDFISDLPVDEFVRELIVTNAFQPLNKFKEVQNHIGSALKIYVDELTEKRANGTVHILYSHK | 0.077 |
| HMGFVTVTEVDTTADLKLARVYVSVLGPEEQWAKSFTALESARGFVWNWLRKHLDLRVTPQLAF | -0.984 |
| HMLKHEEIQEYIKEQINSGTWKPKAKLPSLRDMSELFSTSIGTVLTAYSALEKKHIIYSIPRSGYYVLG | -1.11 |
| HMSMDPYTVLGVNKSSTDSQIKNAYKNLAKQHHPDRGGNEAKFKEISTAYEQIKTAEKRQQYDMSQQF | 0.383 |
| HMKSKNRLTKSYLDSIPGVGRKRKSILLRYFGSIDQIKRASSEDIANVPGIGKITSDLVYNYFNQ | -0.495 |
| HMTAVPADVETVTGFTALDRAGLDTLLARLGLAMDLEDLSFLQAYFRDTERRDPTLTEIRVVDTYWSDH | -1.38 |
| HMKRNTKAEVLEILLNSGETPVSGERLAENLGISRNAVWKAVTALKEDGYNISAKRNSGYILNKS | -0.0063 |
| HMPESYFEMLQKLLETYALPQEGTIYFSAADLARMPQKFEDVIEQTAQKKGGHLVVSKEPKDMDGGFVLV | -1.41 |
| HMVEVPKVAGMSTAQGVSELEQKGFVVNRTESYDDTVPKGNIISQTPEGGTKVPSGSAVTIKISQGAE | -0.157 |
| HMQEAATSLNAKILAKLRENNGTLAVSDKSDPALISSLFGVSKGNFKKAIGALYKNGQIVIHADRIEL | -0.436 |
| HMSNKYYETILDWFKSQIMSGELKEGDTIPSERELATRFGVSRVPVREALRILEYIGIVSNTADGMTVQKV | -0.879 |
| HMVEDIVLTDAQIEFVKQQAKNGLSAFQISEMIWPEMSVKRFSKQHVAVLDFLREYEPAYVHDSE | 0.00709 |
| HMKSFDERQAALNELAKVIEGTGRKAEQDAEFRREQNQLMIDKIDEQLKGDLTDSQREELKKERAALARK | 0.153 |
| HMKIPYGELIKLLNAAAPKLQDAQGWMDMEAAGQFIGSRWSYLDYGFKDWPDSFKTVHGLEIQGQRMRLA | -0.452 |
| HMGDAVSRAYFALADDLLKGELTETVSEVLIRTRYELTSAQLQAVLHRIAQEGWAHKKPGYGWEFSAMLT | -1.83 |
| HMAHLSPNDAARLVGVSRPLLNQILDEGRITFFETAGGHRKIKLAAVLAYIKERDEVAAQLAAART | -0.746 |
| HMPGRPSRISDAVKDQIDHDLRKNPRDLGYSQNLWDGKLLSHHLKERYQITLGIRQAQRLFHQLGFRQR | -0.0323 |

| Sequence | soluble fraction (log2) |
| --- | --- |
| HMIIDTELMTRVMKFGFSQADASDLVAQHSDDLLRTAISRVEARAESKGMTPLETPAGYFRWTLQDLVRNP | -1.24 |
| HMNEIDLEAAKRIALQNAGVESADAAFTKAQLDYDDGVAEYEIEFVAGSTKYEYEISAANGTVLKSSKESV | -0.0497 |
| HMESNWLTYAKRIQSIADTGMTFAVDDFDKERYQELADISSKMLADLSNIPIGRIENLLGPLGQ | -0.75 |
| HMTRYQHLAMLLEKRIAQGLYRNGERLPSVRSLSAEHGVSISTVQQAYYLLEQKQLIIPQSRSGYYVAPH | -4.42 |
| HMKNDNIHMMASKINGIALEVGVLTPGMHPKNDLSEGEVGYIVTNLKTTREAKVGDTVTLAKKPAATPLPG | 0.254 |
| HMRVTEVSYDKFLDMLSGGQVTVVELQENERELYFKAADENGAERIYSTGVFPDADLQKRLSESGVTF | -0.025 |
| HMDKKTMFNEALAKLVSYATAHDNLITMEDVKSFFNGLIDDDSQYKLIYDYLSINKIEIKGFT | 0.2 |
| HMGLPAWVPQNYIDRVTAIYDYSADKDDELTFNEGSTIFVLKKNDDGWWEGVMDGVTGLFPGNYVEAT | -0.8 |
| HMDDNMNEQWKMILNSIAKKGSVTRQETEKILGIGQTRAHVLLKAMIHAGMIKAVGDGKKRRYVR | -1.01 |
| HMSVAPISYSQFESYLEQGKVASVAVGQDTIAGRFTAPVDGKSQFVTTIVNPQILDRIDKSGVEITGV | 0.176 |
| HMSGQLTEEQVKQIVTTAVKNSSGSTLTAAEVSRIVSTAVANNLTADQVKTVVNNALAGITTDISTLKA | 0.0898 |
| HMSVPVDEVLAALTQKLTDLRTQAMAAKDFSAVDALKAALTEAGVEVRMSKTGVELIAGPRVDAKKLGTL | -0.03 |
| HMTSEVPVGSNVRIRASTLAGERDFEGTMLPPAGEGLTTLKLVNGYNLSYPSKDVLDIEFLGGAGE | 0.057 |
| HMKSILSEIPGIGPKKRKSLMMQFGSVKNISEASLKDLSSTKGINSNLSKEIFNFFSVEKNN | -0.0118 |
| HMPIKYTHKGYTINVSRSKMNGTTFVKVVDPKGQVIQQSQDNRIQDVNQLVTTMKQYIDTLKPS | 0.189 |
| HMAAQDLIVKTDASQVEARVLEISPDAVRYKRFSNPDGPTYVLPVAEIRYIRYANGEVEYYA | -0.0166 |
| HMGQKETIVDLLKTNGTMTQLALAEAIYGDKNHGPNIYSVLMGRVNSGAVLRTGSQPAYYSLSG | 0.0821 |
| HMAVSVPDVMGLTYEEAYNKITAEGLLVNRLESYTGLVEKGRVISQLPVGGEPAAKGSTVNVNVSL | 0.252 |
| HMTNIDIEKSIKNTITANYDDVLNYHNEDDNKTFASGDSRYSFDYDEKTKTLIVFTNSKVDAVFVDGIKKK | -0.0966 |
| HMKDITPASEDQLKAITDLMLKVNGEWSDAFFTFISKKFNHQISSPEQLTTFEANTIIDMLRKKAEG | 0.192 |
| HMVDPELFIWVESSKEPVYHLAYKIELFVHSTDPQDDVPVHRWQVFVDAHNGNILDKFDEVR | -0.159 |
| HMGDSVLNDKLNTLAGLDEERFKWVLASLNPNNSYSTHSDKMSALMWLVSYFNDEADLKETVPPLPI | -0.0724 |
| HMVQMNMLELQEEMQRDRSWIIKHLFQDEYFRRKIAKFSQFPINDSGKYLFHRKSMLKFLNDYAEEIVER | -2.56 |
| HMVEVPNVIGMTKPELTQQFVNLKLDGSGEGDVVVQQSPSEGSKVKEGSTVRVYFG | 0.0119 |
| HMRRTEKEIEQDVMRAIATIISEKGISSVTIKEVSNLSKTDVIVLERRFKNDEGLIKAYTSQ | -0.166 |
| HMSPKYLELVRWINTQIQEKKLTAGQKMYSENELKEMFGVSRQTVRHAISVLEGEGMIRRVRGSGTYINDN | -1.83 |
| HMKQESSEDLLNEVIDKVIDSNPDEKNRLLDGELKLVSFFMGQVMKETKGKANPGVINGLIKKKFNI | -0.675 |
